Data published in paper PMC9667838.

Biological target: Secreted form of the peptidase domain (PD) of ACE2 (human)
Assay: BLI

| Substance | Kd [nM] |
| --- | --- |
| Receptor binding domain (RBD) of the spike glycoprotein of SARS-CoV-2 Omicron subvariants BA.4/BA.5 (from UniProt P0DTC2 319-541) (domain or fragment) | 4.55 |
| Receptor binding domain (RBD) of the spike glycoprotein of SARS-CoV-2 Omicron subvariant BA.2 (from UniProt P0DTC2 319-541) (domain or fragment) | 4.15 |
